Reference: patent US9822148B2, “EGFR-binding peptide” (HOYA CORPORATION, priority 2012, dated 2017)
Where no end group is shown, it is not given here. The star is where a group is joined. FITC = O=C1OC2(c3ccc(O)cc3Oc3cc(O)ccc32)c2ccc(NC(=S)*)cc21; Ahx = NCCCCCC(=O)O

Tests used:
rhEGFR = target: T1, rhEGFR (Homo sapiens, UniProt P00533); test: Competition test between phage and synthetic peptide on solid phase rhEGFR; type: binding; conditions: for binding of the I-1010 phage to a rhEGFR (ratio of an input titer/output titer) on adding the peptide: peptide added at each concentration, up to 100 μM
T1 construct: purchased R&D Systems
Experimental: A rhEGFR that is a target protein was added to a 96-well microplate to be 1 μg/well, and stood still at 4° C. overnight to be thus formed into a solid phase. A protein solution was removed, 300 μl of a blocking buffer was added and the mixture was incubated at 37° C. for 1 hour to thus block the wells. After removal of the blocking buffer, the wells were washed three times with 200 μl of 0.5% TBST washing solution, and finally 100 μl of 0.5% TBST was added thereto. […] A reaction only of the I-1010 phage without adding both of the peptides was employed as a control. […] In the reaction, the mixture was gently shaken at room temperature for 1 hour. The reaction solution was removed and the wells were washed with 200 μl of 0.5% TBST ten times. 100 μl of 0.2 M glycine-HCl (pH 2.2) was then added to the wells and stirred by pipetting, thereafter gently shaking at room temperature for 10 minutes. The eluate was collected to a microtube from the wells and added with 15 μl of 1M Tris-HCl (pH 9.1) to be neutralized and a target binding phage solution was thus obtained. The binding ability of the collected phage was examined by a measurement of a titer.

A-431 cells = test: In vitro imaging with FITC labeled peptide, confocal microscope, A-431 cells; type: cell-based, human; conditions: 100 μM FITC labeled peptide, 37° C., 1 hour
Experimental: A-431 cells were inoculated in a glass bottom dish to be 20×10^4 cells/dish and MCF7 cells were inoculated in a glass bottom dish to be 75×10^4 cells/dish, and cultured at 37° C. in the condition of CO2 for 24 hours. After culturing each kind of the cells for a specified time, EGF was added to have a concentration of 100 ng/mL and the mixture was cultured for 6 days. Thereafter, the culture solution in the dish was removed and washed with 1000 μL of a growth medium at 37° C. ten times. An aminocaproic acid linker was connected to an N terminal of a peptide and the peptide in which FITC was labeled in the opposite side of the connected linker (Pep055-F, Pep032-F ([…] (peptide irrelevant to binding to EGFR): SEQ ID No. 54)) (purity 80.6%, HPLC grade, AnyGen, Korea) was prepared to be 100 μM in a growth medium, and 1 mL of the medium was added and incubated at 37° C. for 1 hour. A staining fluid was removed and washed with 1 mL of a growth medium at 37° C. three times and thereto was finally added 1 mL of the medium. For observation, fluorescent observation was carried out by irradiating an exciting light laser with a wavelength of 488 nm using a confocal microscope (Leica SP2).

[1] = I-1010 phage 1×10^10 PFU, FIG. 6

Substance: GAASRTYLHELI (Random peptide) [Pep018, reference compound]
- binding of the I-1010 phage to a rhEGFR (ratio of an input titer/output titer) on adding the peptide (rhEGFR; [1]): maintained

Substance: Pep056: synthetic peptide (SEQ ID No. 4) of the I-1012 phage displayed peptide (FHDWLPEVSPPD; I-1012)
- binding of the I-1012 phage to EGFR on adding the peptide (rhEGFR; FIG. 7): inhibit

Substance: Pep055: synthetic peptide obtained by artificially synthesizing the I-1010 phage displayed peptide (SEQ ID No. 2) (WHLSDLWQNAWH; I-1010)
- peptide concentration from which the ratio of an input titer/output titer of the I-1010 phage dropped (rhEGFR; [1]): ≥ 1 µM
- binding of the I-1010 phage to a rhEGFR (ratio of an input titer/output titer) on adding the peptide (rhEGFR; [1]): inhibited concentration-dependently

Substance: YLPLWRLSESHM ({FITC-Ahx}-YLPLWRLSESHM) [Pep032-F, reference compound]
- stainability of A-431 cells (A-431 cells): scarcely stained

Substance: Pep057: synthetic peptide (SEQ ID No. 7) of the I-1015 phage displayed peptide (LHQSEWMYVDIH; I-1015)
- binding of the I-1015 phage to EGFR on adding the peptide (rhEGFR; FIG. 8): inhibit

Substance: Pep055-F: Pep055 with an aminocaproic acid linker at the N terminal, labeled with FITC ({FITC-Ahx}-WHLSDLWQNAWH)
- stainability of A-431 cells (A-431 cells): Staining of the cytoplasm of the A-431 cells was observed
